Substitutions are numbered along the chain they refer to. Read-outs that look alike come from different tables or passages of the source. Oligonucleotides are written 5' to 3', each unit as a sugar letter and its base; * is a phosphorothioate linkage, no mark a phosphodiester; rarer units and linkages stand in square brackets, end groups in braces. Plain capitals give the bases only. d = 2'-deoxy (DNA); r = 2'-OH (RNA); f = 2'-fluoro

Data set [1] concerns botrocetin induced platelet aggregation. The data set is described as follows: Inhibition of botrocetin induced platelet aggregation (BIPA) in human PRP. It is filed as cell-based. As to conditions: botrocetin induced platelet aggregation, 6 minutes. The procedure: In platelet rich plasma isolated from fresh human blood, botrocetin induces platelet aggregation via vWF. Platelet aggregate formation can be measured optically as an increase in % light transmittance on a Chronolog Model 490-4D Aggregometer because aggregation of platelets clarifies the plasma. Aptamers of the invention were analyzed for their ability to inhibit botrocetin induced platelet aggregation (“BIPA”) in human blood. An aptamer of the invention was considered to be active if it could prevent aggregate formation for six minutes post botrocetin addition.
In order to determine the activity of aptamers on live human platelets, BIPA assays were done using freshly prepared platelet rich plasma. Blood was obtained from healthy human donors who had not taken NSAIDS for at least five days. […] Collected blood was pooled into 15 mL conical tubes and was spun at 200 g for 20 minutes. The turbid, yellow layer of platelet rich plasma (“PRP”) was withdrawn from the tubes, pooled, and set aside at room temperature. The remaining blood was spun at 2500 g for ten minutes. The clarified layer of plasma, known as platelet poor plasma (“PPP”), was withdrawn and set aside at room temperature. PRP was aliquoted into cuvettes containing stir bars at a volume of 470 uL. A sample of 500 uL of PPP was aliquoted into a cuvette and placed in the PPP reference cell of the platelet aggregometer. Samples of PRP were prewarmed at 37 degrees C. in the platelet aggregometer for 3-5 minutes before being used in BIPA assays. First, the concentration of botrocetin needed to induce platelet aggregation for each individual donor was determined by titration. This concentration of botrocetin was used for the remainder of the experiment. Next, aptamer was assayed by adding titrations of aptamer (zero, 1 nM to 1000 nM) to prewarmed PRP for one minute, followed by addition of botrocetin. With platelet aggregation, an increase in amplitude of light transmission is seen (FIG. 8). The concentration at which platelet aggregation is blocked at 90% or greater after 6 minutes is reported in the final column of Table 26.

For data set [2], the system named is full length human vWF binding to lyophilized platelets. Briefly: Full length human von Willebrand Factor platelet binding assay (FACS). It is filed as cell-based. The settings on record: 5 nM full length human vWF, lyophilized platelets, botrocetin; for IC50: read-out: Inhibition of full length hVWF binding in FACS assay, Average IC50; for Inhibition of full length hVWF binding in FACS assay, IC50 range: both bounds in nM. In a few lines:
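Aptamer titrations (0.1–1000 nM) pre-incubated with 5 nM full-length human vWF, then added to lyophilized platelets plus botrocetin for 15 min at 37 °C in PBS/0.5% BSA. Bound vWF detected by anti-vWF then FITC secondary antibody via flow cytometry MFI; % inhibition versus no-aptamer binding fitted for IC50.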
A general note: In flow cytometry, cells or beads pass a laser one at a time.

Data set [3] relates to rabbit vWF A1 domain (SEQ ID NO 6). Briefly: dot blot KD determination, rabbit vWF A1 domain. As to conditions: rRdY minimers; 8 point titration 0-300 nM. It is filed as binding.
Chain of rabbit vWF A1 domain (SEQ ID NO 6) (as listed by the source): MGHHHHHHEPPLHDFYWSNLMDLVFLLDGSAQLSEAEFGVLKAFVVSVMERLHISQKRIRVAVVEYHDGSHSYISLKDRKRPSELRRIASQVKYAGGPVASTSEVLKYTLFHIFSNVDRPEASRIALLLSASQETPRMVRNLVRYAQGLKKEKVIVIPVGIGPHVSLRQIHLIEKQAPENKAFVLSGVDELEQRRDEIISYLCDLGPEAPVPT
Protocol: A 12 point protein titration was used in the dot blot assay (300 nM, 100 nM, 30 nM, 10 nM, 3 nM, 1 nM, 300 pM, 100 pM, 30 pM, 10 pM, 3 pM, 0 pM) in 1×DPBS plus 0.1 mg/mL BSA at room temperature for 30 minutes.
Data set [4] deals with full length human vWF (SEQ ID NO 7). The data set is described as follows: dot blot KD determination and extent of binding, full length human vWF.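 Note: dot blot binding of aptamers to full length human vWF across a protein titration, incubated 30 minutes at room temperature in 1x DPBS with BSA.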 As to conditions: rRdY minimers; 8 point titration 0-300 nM; read-out: Full length human vWF KD.
Data set [5] deals with rabbit vWF domain A1 binding to lyophilized platelets. The data set is described as follows: Rabbit von Willebrand Factor domain A1 platelet binding assay (FACS). The settings on record: 4 nM rabbit A1 vWF, lyophilized platelets, botrocetin. It counts as cell-based. The procedure:
Botrocetin induces the binding of the A1 domain of vWF to platelets, as well as the full length protein. It was determined by the inventors that 6-Histidine-tagged rabbit A1 domain vWF purified protein could be induced to bind to human lyophilized platelets with botrocetin. Rabbit A1 binding to platelets is measured with an anti-poly-His antibody followed by incubation with a phycoerythrin conjugated secondary antibody. The degree of binding can be quantified by flow cytometric analysis. The ability of aptamers to block the binding of rabbit A1 to human fixed platelets was correlated with decreased fluorescence signal.
The ability of aptamers of the invention to block rabbit vWF domain A1 binding to lyophilized platelets was also assessed by flow cytometric analysis. Titrations of aptamers (zero, 0.1 nM to 1000 nM) were preincubated briefly with 4 nM of rabbit A1 vWF in FACS buffer (PBS plus 0.5% bovine serum albumin) at room temperature in a volume of 50 uL. Another 50 uL containing 5 uL of lyophilized platelets plus 1 uL of 0.1 U/uL of botrocetin in FACS buffer was added to aptamer/vWF. This reaction was allowed to proceed for 15 minutes at 37 degrees C. after which 200 uL of FACS buffer was added. Platelets were collected by a 6 minute spin at 1470 RCF and the supernatant was discarded. The pellets were resuspended in 100 uL of FACS buffer containing a 1:200 dilution of anti-Penta-HIS-biotin conjugate antibody and were incubated at room temperature for 30 minutes. After the dilution with 200 uL of FACS buffer, the platelets were spun at 1470 RCF for 6 minutes, and the supernatant was discarded. The pellets were resuspended in a 1:100 solution of anti-IgG-PE antibody and were incubated in the dark for 30 minutes at room temperature. The entire 100 uL was diluted into 200 uL of FACS buffer and analyzed immediately by flow cytometric analysis in the FACSCAN. Contaminating debris was eliminated from the analysis by drawing a gate around the population of single and aggregated platelets and collecting data from 10000 events. Median fluorescent intensity (“MedFI”) readings (which are generally equivalent to the MFI readings, described in Example 3a above, for comparative purposes) were quantified for each sample analyzed by flow cytometry. Background MedFI was subtracted from all data points. Percent inhibition was reported by calculating the percent value of binding of […] to platelets in the presence of aptamer at a given concentration relative to binding in the absence of any aptamer (see FIG. 7). IC50 values were determined by fitting the percent inhibition of vWF binding to platelets as a function of aptamer concentration to the equation: % inhibition=% inhibitionmax/(1+IC50/aptamer conc.)

The target of data set [6] is T1, human vWF A1 domain (SEQ ID NO 5) (Homo sapiens, UniProt P04275, T1381A). Briefly: 3-point dot blot screen, human vWF A1 domain. It counts as binding. As to conditions: 100 nM human vWF A1 domain. A digest of the protocol: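 Values are ratios of aptamer fraction retained on nitrocellulose with 100 nM vWF A1 domain (human or rabbit) versus a no-protein control. Unique clones from rounds 9 and 12 pools were transcribed, desalted and 5'-32P labeled before this three-point dot blot screen.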
T1 sequence (P04275 with tags, fused parts or gaps T1381A): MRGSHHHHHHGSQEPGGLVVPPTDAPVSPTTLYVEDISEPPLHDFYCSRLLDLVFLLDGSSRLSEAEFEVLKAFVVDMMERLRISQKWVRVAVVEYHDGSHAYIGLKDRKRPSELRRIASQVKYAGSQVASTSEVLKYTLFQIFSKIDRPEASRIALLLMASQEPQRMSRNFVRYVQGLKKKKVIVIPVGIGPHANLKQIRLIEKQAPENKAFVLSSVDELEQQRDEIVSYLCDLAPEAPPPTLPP

Data set [7] deals with rabbit vWF A1 domain (SEQ ID NO 6). The data set is described as follows: 3-point dot blot screen, rabbit vWF A1 domain. The settings on record: for Screen- Rabbit/No Protein: 100 nM rabbit vWF A1 domain, ratio of fraction bound with target to without; for Screen Rabbit/No Protein: 3-point dot blot screen, 20 nM rabbit vWF A1 domain, ratio of fraction of aptamer bound with target protein to fraction bound without protein. It counts as binding. In a few lines:
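Rabbit vWF A1 domain binding was screened by dot blot using three conditions: no target protein, human vWF, and rabbit vWF A1 domain at 100 nM (20 nM in the screen run twice). Radiolabeled aptamer bound to nitrocellulose was quantified, and results are expressed as the ratio of bound fraction with protein to bound fraction without protein.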

Data set [8] concerns the target T1, human vWF A1 domain (SEQ ID NO 5). Briefly: dot blot KD determination, human vWF A1 domain.
For a further data set, the system named is full length human vWF. The data set is described as follows: 3-point dot blot screen, full length human vWF. The settings on record: 20 nM full length human vWF, ratio of fraction of aptamer bound with target protein to fraction bound without protein. It counts as binding. In a few lines: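 Unique aptamer clones tested twice by nitrocellulose dot blot with no protein, 20 nM full-length human vWF or 20 nM rabbit vWF A1 domain. Value is fraction of aptamer bound with target divided by fraction bound without protein.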

Setting [9] is: rRdY aptamers, ratio of fraction bound with target to without.
Where [10] appears, read: read-out: Human A1 KD, rRdY aptamers, 6 point protein titration.
Where [11] appears, read: both bounds in nM, read-out: Inhibition of rabbit VWF A1 domain binding in FACS assay, IC50 range.
[12] abbreviates: read-out: human A1 KD, rRfY aptamers, 8 point titration of human vWF A1 domain.

Chain of rabbit vWF domain A1 binding to lyophilized platelets (as listed by the source): as the sequence (as listed by the source) above

What is called IC50 is the concentration at which inhibition is half-maximal. Consider “GGAGCCACACGACATTGGCGCGAGAGCGCATGGCTCC (chemistry not given here) [SEQ ID NO 201, minimized rRdY aptamer]”, for which the “≦200 nM aptamer gives >90% blocking in BIPA at 6 minutes” value (“≦200 nM aptamer gives >90% blocking” for short) in data set [1] is recorded as “no activity”. Further, the IC50 in data set [2] is 150 nM.

As a reminder, the Kd is the equilibrium constant for the complex coming apart. For “GGGACGGGGTGGGTAGACGGCGGGTATGTCCC (rGrGrGrAdCrGrGrGrGdTrGrGrGdTrArGrAdCrGrGdCrGrGrGdTrAdTrGdTdCdCdC) [SEQ ID NO 183, minimized rRdY aptamer]”, the values for the Kd in [3] and in [4] were 14 ± 7 nM and 10 ± 5 nM, respectively. Besides, in [2], the IC50 turned out to be 26.5 nM.

“GGACCACCCUCGCAACGAGAGUUGUGCCGCUGGUCC (rGrGrAfCfCrAfCfCfCfUfCrGfCrArAfCrGrArGrArGfUfUrGfUrGfCfCrGfCfUrGrGfUfCfC) [SEQ ID NO 174, minimized rRfY aptamer]”: the IC50 in data set [5] (read-out: Inhibition of rabbit VWF A1 domain binding in FACS assay, Average IC50) came out at 6.8 nM; in [2], 6.6 nM. Further, the “≦200 nM aptamer gives >90% blocking” value in data set [1] is “yes”.

B1: AMX203.D6: rRdY aptamer clone (nucleic acid)
chain: rGrGrArGdCrGdCrAdCdTdCrArGdCdCrAdCrArGdTdTdCdTrGdTdCrGrGdTrGrAdTrGrArAdTdTrArGdCrGdCrGrArGrArGdCdTrGdTrGrGrGrAdCrGdTdTdTdCrGrAdCdCdTdCdTdCdTrGdCdTrArGdC
For the molecule B1, the “Screen- Human/No Protein” value in [6] (setting [9]) is 1.92. Also, the “Inhibition of full length hVWF binding in FACS assay, IC50 range” value (“Inhibition of full length hVWF binding” below) in data set [2] is recorded as “no activity”. The “Screen- Rabbit/No Protein” value in data set [7] (rRdY aptamers) worked out at 1.57. Moreover, the Kd in data set [8] (setting [10]) worked out at 523 nM.

B2: AMX237.G7: DNA SELEX 2 aptamer clone (nucleic acid)
DNA: CTACCTACGATCTGACTAGCTTGGTAGCGACTTTGTGGAGCTGCGGTTTGGTCGACGTCAGCTTACTCTCATGTAGTTCC
modifications: DNA, backbone not given here
notes: DNA SELEX 2 aptamer clone
On to B2, for which the IC50 came out at 12.3 nM in [5] (setting [11]) and 6.5 nM in data set [2]. In the data set on full length human vWF, the “Screen- Human/No Protein” value came to 2.68. In [7], the “Screen Rabbit/No Protein” value was 2.54.

B3: AMX236.A12: DNA SELEX 2 aptamer clone (nucleic acid)
chain: B2 DNA with T33C
modifications: DNA, backbone not given here
notes: DNA SELEX 2 aptamer clone
Consider B3, for which the results for the IC50 in data set [5] (setting [11]) and in data set [2] were 14.5 nM and 10.7 nM, respectively. Also, the “Screen- Human/No Protein” value in the data set with full length human vWF came to 2.64. Moreover, the “Screen Rabbit/No Protein” value in data set [7] is listed as 2.41.

B4: AMX201.H3: rRfY aptamer clone (nucleic acid)
chain: rGrGrArGfCrGfCrAfCfUfCrArGfCfCrAfCfUrArAfCrGrGfUfUrGrAfUfCfUfCrArGrGrAfCfUrArArAfUrArGfUfCrArAfCrArArGrGrAfUrGfCrGfUfUfUfCrGrAfCfCfUfCfUfCfUrGfCfUrArGfC
B4: in data set [1], the “≦200 nM aptamer gives >90% blocking” value is given as “yes”. Besides, the “Screen- Human/No Protein” value in data set [6] (rRfY aptamers, ratio of fraction bound with target to fraction bound without target) was 1.88. For the same molecule, the “Inhibition of full length hVWF binding” value in data set [2] is reported as “no activity”. Further, the “Screen- Rabbit/No Protein” value in data set [7] (rRfY aptamers) is recorded as 1.89. Also, the equilibrium dissociation constant (Kd) in data set [8] (setting [12]) amounted to 90 nM.

B5: AMX205.H8: rRdY aptamer clone (nucleic acid)
chain: rGrGrArGdCrGdCrAdCdTdCrArGdCdCrAdCrArArAdCrGrGrAdCrGrGdTrGrAdTrGrGrAdTdTrArAdCrGdCrGrGrGdTdTdTrAdTrGrGdCrArArGrGdTdTdTdCrGrAdCdCdTdCdTdCdTrGdCdTrArGdC
Turning to B5, the “Screen- Human/No Protein” value in data set [6] (setting [9]) is 2.04. Further, the “Inhibition of full length hVWF binding” value in data set [2] is on record as “no activity”. In data set [7] (rRdY aptamers), the “Screen- Rabbit/No Protein” value was found to be 2.84. Further, the Kd in [8] (setting [10]) was determined as 788 nM.

B6: AMX201.B1: rRfY aptamer clone (nucleic acid)
chain: rGrGrArGfCrGfCrAfCfUfCrArGfCfCrAfCrArGrArGfCfCfCfUrGrArGfUrGfUrAfUrGrAfUfCrGfCfCfUrArGrAfUfCfUrAfUfCrGrAfUrGfCfUfUfUfUfUfCrGrAfCfCfUfCfUfCfUrGfCfUrArGfC
Regarding B6, the “≦200 nM aptamer gives >90% blocking” value in [1] is listed as “yes”. Moreover, the “Inhibition of full length hVWF binding” value in [2] is listed as “no activity”. For the same molecule, the Kd in data set [8] (setting [12]) came out at 19 nM.

The record behind these values is patent US7998940B2, “Aptamers to von Willebrand factor and their use as thrombotic disease therapeutics” (Archemix Corp., priority 2004, dated 2011).
